How the values were obtained:
ADI-70326 = molecular target: T1, ADI-70326; test: SPR Carterra, yeast anti-ID
T1 construct: anti-CD3 antibody made in CHO cells, captured by anti-human Fc
Method: (§1) Kinetic analysis was conducted at 25° C. in an HBSTE running buffer system (Carterra Cat #3630) using a Carterra LSA (Carterra USA, Salt Lake City, UT). The sample compartment was maintained at 20° C. for the duration of each experiment.
(§2) For antibody capture experiments, a goat anti-human Fc antibody (Jackson ImmunoResearch) was covalently coupled to an HC30M sensor chip surface via standard amine coupling (1:1 EDC:NHS) and then blocked with ethanolamine (1.0 M, pH 8.5). Covalent coupling steps were performed in 25 mM MES buffer (Carterra, Cat #3625) plus 0.05% Tween20. The anti-CD3 antibodies (100 nM in running buffer) were flowed over discrete regions of interest on the chip surface for 5 minutes. […] Dissociation of the anti-idiotype antibodies was monitored for 300s. Several blank buffer samples were injected over the entire chip surface at the start of each non-regenerative kinetic cycle. The preceding blank buffer injection was used for blank surface subtraction. At the end of each non-regenerative kinetic cycle, all surfaces were regenerated via two 30s injections of 10 mM glycine, pH 1.7.
(§3) For data processing and fitting, sensorgrams were double reference subtracted with a baseline drift correction of 4 RU. Sensorgrams were y-aligned and baseline corrected, filtered and cropped to include only the association and dissociation steps. Data was fitted to a 1:1 binding model using Carterra Kinetics Data Analysis software version 1.7.1.3055.

ADI-70327 = molecular target: T2, ADI-70327; test: SPR Carterra, yeast anti-ID
T2 construct: anti-CD3 antibody made in CHO cells, captured by anti-human Fc
T2 sequence (VH, as listed by the source limits assumed, chain 1 of 2): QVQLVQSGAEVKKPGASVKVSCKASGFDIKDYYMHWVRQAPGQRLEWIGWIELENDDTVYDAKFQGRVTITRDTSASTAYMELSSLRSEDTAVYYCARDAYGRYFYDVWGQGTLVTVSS
T2 sequence (VL, as listed by the source limits assumed, chain 2 of 2): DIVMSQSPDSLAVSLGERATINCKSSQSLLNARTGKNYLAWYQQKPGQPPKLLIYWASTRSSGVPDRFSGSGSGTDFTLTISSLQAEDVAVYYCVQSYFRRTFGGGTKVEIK
Method: as §1, §2, §3

ADI-70330 = molecular target: T3, ADI-70330; test: SPR Carterra, yeast anti-ID
T3 construct: anti-CD3 antibody made in CHO cells, captured by anti-human Fc
Method: as §1, §2, §3

ADI-67445 = molecular target: T4, ADI-67445; test: SPR Carterra, yeast anti-ID
T4 construct: anti-CD3 antibody made in CHO cells, captured by anti-human Fc
T4 sequence (VH, as listed by the source limits assumed, chain 1 of 2): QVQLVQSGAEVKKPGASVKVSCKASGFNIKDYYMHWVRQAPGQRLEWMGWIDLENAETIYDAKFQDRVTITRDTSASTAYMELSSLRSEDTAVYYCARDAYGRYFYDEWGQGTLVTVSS
T4 sequence (VL, as listed by the source limits assumed, chain 2 of 2): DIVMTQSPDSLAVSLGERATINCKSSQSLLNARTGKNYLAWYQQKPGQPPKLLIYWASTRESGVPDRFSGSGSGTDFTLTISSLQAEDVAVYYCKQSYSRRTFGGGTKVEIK
Method: as §1, §2, §3

ADI-26909 = molecular target: T5, ADI-26909; test: SPR Carterra, yeast anti-ID
T5 construct: anti-CD3 antibody made in CHO cells, captured by anti-human Fc
T5 sequence (VH, as listed by the source limits assumed, chain 1 of 2): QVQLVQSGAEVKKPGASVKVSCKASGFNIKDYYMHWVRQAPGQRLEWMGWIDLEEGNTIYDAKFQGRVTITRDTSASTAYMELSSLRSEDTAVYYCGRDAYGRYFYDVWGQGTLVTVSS
Method: as §1, §2, §3

ADI-26921 IgG = molecular target: T6, ADI-26921 IgG; test: SPR Carterra, yeast anti-ID
T6 construct: anti-CD3 IgG
Method: as §1, §2, §3

ADI-26915 = molecular target: T7, ADI-26915; test: SPR Carterra, yeast anti-ID
T7 construct: anti-CD3 antibody made in CHO cells, captured by anti-human Fc
T7 sequence (VH, as listed by the source, chain 1 of 2): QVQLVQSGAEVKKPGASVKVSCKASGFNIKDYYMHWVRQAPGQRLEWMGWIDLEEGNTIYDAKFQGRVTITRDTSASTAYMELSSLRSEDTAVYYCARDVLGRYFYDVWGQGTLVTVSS
Method: as §1, §2, §3

ADI-48587 = molecular target: T8, ADI-48587; test: SPR Carterra, yeast anti-ID
T8 construct: pH-dependent anti-CD3 antibody made in CHO cells
Method: as §1, §2, §3

CTL-62223 = molecular target: T9, CTL-62223; test: SPR Carterra, yeast anti-ID
T9 construct: also called mosunetuzumab
Method: as §1, §2, §3

CTL-62227 = molecular target: T10, CTL-62227; test: SPR Carterra, yeast anti-ID
T10 construct: also called odronextamab
T10 sequence (VH, as listed by the source, chain 1 of 2): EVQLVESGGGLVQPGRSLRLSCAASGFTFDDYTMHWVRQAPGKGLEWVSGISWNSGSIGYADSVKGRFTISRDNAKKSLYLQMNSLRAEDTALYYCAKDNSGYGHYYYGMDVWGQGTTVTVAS
T10 sequence (VL, as listed by the source, chain 2 of 2): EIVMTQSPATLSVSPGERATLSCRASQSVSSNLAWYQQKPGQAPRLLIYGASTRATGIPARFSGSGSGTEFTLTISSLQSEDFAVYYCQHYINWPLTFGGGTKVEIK
Method: as §1, §2, §3

CTL-62228 = molecular target: T11, CTL-62228; test: SPR Carterra, yeast anti-ID
T11 construct: also called glofitamab
Method: as §1, §2, §3

CTL-62240 = molecular target: T12, CTL-62240; test: SPR Carterra, yeast anti-ID
T12 construct: also called ONO-4685
T12 sequence (VH, as listed by the source, chain 1 of 2): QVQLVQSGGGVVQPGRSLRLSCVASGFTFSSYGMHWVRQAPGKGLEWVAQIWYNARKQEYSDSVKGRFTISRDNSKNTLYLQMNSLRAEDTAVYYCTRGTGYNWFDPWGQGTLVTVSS
T12 sequence (VL, as listed by the source, chain 2 of 2): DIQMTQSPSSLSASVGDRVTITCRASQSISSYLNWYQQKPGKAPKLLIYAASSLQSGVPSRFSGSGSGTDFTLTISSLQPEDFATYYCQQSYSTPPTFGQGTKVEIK
Method: as §1, §2, §3

ADI-50024 = molecular target: T13, ADI-50024; test: SPR Carterra avidity, yeast anti-ID
T13 construct: anti-CD3 antibody made in CHO cells, captured by anti-human Fc
Method: as §1, §2, §3

ADI-67450 = molecular target: T14, ADI-67450; test: SPR Carterra avidity, yeast anti-ID
T14 construct: anti-CD3 antibody made in CHO cells, captured by anti-human Fc
Method: as §1, §2, §3

ADI-67447 = molecular target: T15, ADI-67447; test: SPR Carterra avidity, yeast anti-ID
T15 construct: anti-CD3 antibody made in CHO cells, captured by anti-human Fc
Method: as §1, §2, §3

ADI-26913 IgG = molecular target: T16, ADI-26913 IgG; test: SPR Carterra avidity, yeast anti-ID
T16 construct: anti-CD3 IgG
Method: as §1, §2, §3

ADI-26919 = molecular target: T17, ADI-26919; test: SPR Carterra avidity, yeast anti-ID
T17 construct: anti-CD3 antibody made in CHO cells, captured by anti-human Fc
T17 sequence (VH, as listed by the source limits assumed, chain 1 of 2): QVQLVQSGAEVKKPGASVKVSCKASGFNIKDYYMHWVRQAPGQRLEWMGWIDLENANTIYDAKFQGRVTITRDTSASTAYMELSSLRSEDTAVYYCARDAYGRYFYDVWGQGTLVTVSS
T17 sequence (VL, as listed by the source limits assumed, chain 2 of 2): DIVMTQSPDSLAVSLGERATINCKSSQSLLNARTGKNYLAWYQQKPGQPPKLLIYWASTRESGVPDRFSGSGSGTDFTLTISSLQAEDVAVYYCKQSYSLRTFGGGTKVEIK
Method: as §1, §2, §3

ADI-26916 IgG = molecular target: T18, ADI-26916 IgG; test: SPR Carterra avidity, yeast anti-ID
T18 construct: anti-CD3 IgG
T18 sequence (VH, as listed by the source, chain 1 of 2): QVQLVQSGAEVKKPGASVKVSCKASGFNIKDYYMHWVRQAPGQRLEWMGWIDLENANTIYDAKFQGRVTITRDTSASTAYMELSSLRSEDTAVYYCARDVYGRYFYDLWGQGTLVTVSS
Method: as §1, §2, §3

ADI-26912 = molecular target: T19, ADI-26912; test: SPR Carterra avidity, yeast anti-ID
T19 construct: anti-CD3 antibody made in CHO cells, captured by anti-human Fc
T19 sequence (VH, as listed by the source, chain 1 of 2): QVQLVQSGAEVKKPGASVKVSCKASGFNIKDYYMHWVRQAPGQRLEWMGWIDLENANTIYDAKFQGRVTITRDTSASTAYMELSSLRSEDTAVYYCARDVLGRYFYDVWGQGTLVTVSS
Method: as §1, §2, §3

ADI-26924 = molecular target: T20, ADI-26924; test: SPR Carterra avidity, yeast anti-ID
T20 construct: anti-CD3 antibody made in CHO cells, captured by anti-human Fc
T20 sequence (VH, as listed by the source, chain 1 of 2): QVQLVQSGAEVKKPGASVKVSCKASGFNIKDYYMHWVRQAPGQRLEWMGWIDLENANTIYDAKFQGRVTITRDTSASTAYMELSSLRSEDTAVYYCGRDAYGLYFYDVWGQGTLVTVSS
Method: as §1, §2, §3

ADI-26943 = molecular target: T21, ADI-26943; test: SPR Carterra avidity, yeast anti-ID
T21 construct: anti-CD3 antibody made in CHO cells, captured by anti-human Fc
T21 sequence (VH, as listed by the source, chain 1 of 2): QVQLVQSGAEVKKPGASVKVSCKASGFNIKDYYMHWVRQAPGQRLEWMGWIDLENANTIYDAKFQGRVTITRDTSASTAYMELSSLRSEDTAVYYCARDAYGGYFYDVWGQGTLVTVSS
T21 sequence (VL, as listed by the source, chain 2 of 2): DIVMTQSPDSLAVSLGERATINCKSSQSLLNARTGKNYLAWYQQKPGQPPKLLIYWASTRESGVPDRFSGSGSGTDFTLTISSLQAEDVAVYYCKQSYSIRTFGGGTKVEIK
Method: as §1, §2, §3

ADI-48576 = molecular target: T22, ADI-48576; test: SPR Carterra avidity, yeast anti-ID
T22 construct: pH-dependent anti-CD3 antibody made in CHO cells
Method: as §1, §2, §3

ADI-48592 = molecular target: T23, ADI-48592; test: SPR Carterra avidity, yeast anti-ID
T23 construct: pH-dependent anti-CD3 antibody made in CHO cells
Method: as §1, §2, §3

ADI-48650 = molecular target: T24, ADI-48650; test: SPR Carterra avidity, yeast anti-ID
T24 construct: pH-dependent anti-CD3 antibody made in CHO cells
Method: as §1, §2, §3

ADI-74965 = molecular target: T25, ADI-74965; test: SPR Carterra avidity, yeast anti-ID
T25 construct: pH-dependent anti-CD3 antibody made in CHO cells
T25 sequence (VH, as listed by the source, chain 1 of 2): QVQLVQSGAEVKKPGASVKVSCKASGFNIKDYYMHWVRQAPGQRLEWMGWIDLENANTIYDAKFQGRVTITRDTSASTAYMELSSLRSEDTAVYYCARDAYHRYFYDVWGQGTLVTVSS
T25 sequence (VL, as listed by the source, chain 2 of 2): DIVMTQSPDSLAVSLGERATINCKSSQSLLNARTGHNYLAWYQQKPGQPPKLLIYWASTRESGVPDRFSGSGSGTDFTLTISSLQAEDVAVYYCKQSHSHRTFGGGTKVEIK
Method: as §1, §2, §3

ADI-74966 = molecular target: T26, ADI-74966; test: SPR Carterra avidity, yeast anti-ID
T26 construct: pH-dependent anti-CD3 antibody made in CHO cells
T26 sequence (VH, as listed by the source, chain 1 of 2): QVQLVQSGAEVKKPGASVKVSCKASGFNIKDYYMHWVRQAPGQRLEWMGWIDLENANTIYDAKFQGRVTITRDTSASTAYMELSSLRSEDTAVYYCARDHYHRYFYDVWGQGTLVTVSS
T26 sequence (VL, as listed by the source, chain 2 of 2): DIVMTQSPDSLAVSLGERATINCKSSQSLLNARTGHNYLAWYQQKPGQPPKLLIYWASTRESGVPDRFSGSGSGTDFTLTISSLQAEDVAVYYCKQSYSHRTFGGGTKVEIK
Method: as §1, §2, §3

ADI-74967 = molecular target: T27, ADI-74967; test: SPR Carterra avidity, yeast anti-ID
T27 construct: pH-dependent anti-CD3 antibody made in CHO cells
T27 sequence (VL, as listed by the source, chain 2 of 2): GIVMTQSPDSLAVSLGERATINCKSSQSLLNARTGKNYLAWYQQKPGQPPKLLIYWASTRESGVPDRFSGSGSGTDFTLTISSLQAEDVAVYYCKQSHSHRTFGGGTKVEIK
Method: as §1, §2, §3

ADI-74968 = molecular target: T28, ADI-74968; test: SPR Carterra avidity, yeast anti-ID
T28 construct: pH-dependent anti-CD3 antibody made in CHO cells
Method: as §1, §2, §3

ADI-76358 = molecular target: T29, ADI-76358; test: SPR Carterra avidity, yeast anti-ID
T29 construct: anti-CD3 antibody made in CHO cells, captured by anti-human Fc
Method: as §1, §2, §3

ADI-76359 = molecular target: T30, ADI-76359; test: SPR Carterra avidity, yeast anti-ID
T30 construct: anti-CD3 antibody made in CHO cells, captured by anti-human Fc
Method: as §1, §2, §3

ADI-76360 = molecular target: T31, ADI-76360; test: SPR Carterra avidity, yeast anti-ID
T31 construct: anti-CD3 antibody made in CHO cells, captured by anti-human Fc
T31 sequence (VH, as listed by the source, chain 1 of 2): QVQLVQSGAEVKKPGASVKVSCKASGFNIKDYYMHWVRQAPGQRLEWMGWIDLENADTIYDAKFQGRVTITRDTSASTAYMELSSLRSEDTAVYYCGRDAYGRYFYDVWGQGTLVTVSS
Method: as §1, §2, §3

ADI-76361 = molecular target: T32, ADI-76361; test: SPR Carterra avidity, yeast anti-ID
T32 construct: anti-CD3 antibody made in CHO cells, captured by anti-human Fc
Method: as §1, §2, §3

ADI-76362 = molecular target: T33, ADI-76362; test: SPR Carterra avidity, yeast anti-ID
T33 construct: anti-CD3 antibody made in CHO cells, captured by anti-human Fc
T33 sequence (VH, as listed by the source, chain 1 of 2): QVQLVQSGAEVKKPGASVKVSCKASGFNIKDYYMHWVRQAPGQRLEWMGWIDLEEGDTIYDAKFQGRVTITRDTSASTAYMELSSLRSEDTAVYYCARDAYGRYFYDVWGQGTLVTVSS
Method: as §1, §2, §3

ADI-22523 Fab = molecular target: T34, ADI-22523 Fab; test: BLI; tip anti-ID IgG, solution ADI-22523 Fab
T34 construct: anti-CD3 Fab by papain digestion of the IgG
Method: (§4) ForteBio affinity measurements were performed generally as previously described (Estep et al., MAbs. 2013 5(2):270-8). Briefly, ForteBio affinity measurements were performed by loading antibody IgG or Fabs on-line onto AHC sensors. Sensors were equilibrated off-line in assay buffer for 30 minutes and then monitored on-line for 60 seconds for baseline establishment. For avid binding measurement, sensors with loaded antibodies were exposed to IgG or Fab solutions for 3 minutes, afterwards they were transferred to assay buffer for 3 minutes for off-rate measurement. Kinetics data were fit using a 1:1 binding model in the data analysis software provided by ForteBio to obtain equilibrium dissociation constant (KD=koff/kₒₙ) values. In each column, tip-immobilized antibodies are listed first and solution antibodies second.

ADI-22523 IgG = molecular target: T35, ADI-22523 IgG; test: BLI; tip anti-ID IgG, solution ADI-22523 IgG
T35 construct: anti-CD3 IgG
Method: as §4

ADI-26906 IgG = molecular target: T36, ADI-26906 IgG; test: SPR Carterra avidity, yeast anti-ID, *koff limit
T36 construct: anti-CD3 IgG
Method: as §1, §2, §3

ADI-26920 IgG = molecular target: T37, ADI-26920 IgG; test: SPR Carterra avidity, yeast anti-ID, *koff limit
T37 construct: anti-CD3 IgG
Method: as §1, §2, §3

ADI-76357 = molecular target: T38, ADI-76357; test: SPR Carterra avidity, yeast anti-ID, *koff limit
T38 construct: anti-CD3 antibody made in CHO cells, captured by anti-human Fc
Method: as §1, §2, §3

B1: ADI-34142 (antibody, V domains shown)
VH: EVQLLESGGGLVQPGGSLRLSCAASGFTFSSYAMSWVRQAPGKGLEWVSTISGSGGSTYYADSVKGRFTISRDNSKNTLYLQMNSLRAEDTAVYYCARLGGRRGSGSSYYYYYGMDVWGQGTTVTVSS
VL: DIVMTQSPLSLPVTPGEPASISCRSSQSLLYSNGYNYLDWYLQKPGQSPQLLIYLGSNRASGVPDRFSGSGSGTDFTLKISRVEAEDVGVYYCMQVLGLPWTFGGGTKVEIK
notes: anti-ID IgG
- binding result (ADI-70326): no binding (tested: up to 200 nM)
- binding result (ADI-70327): no binding (tested: up to 200 nM)
- binding result (ADI-70330): no binding (tested: up to 200 nM)
- binding result (ADI-67445): no binding (tested: up to 200 nM)
- binding result (ADI-26909): no binding (tested: up to 200 nM)
- binding result (ADI-26921 IgG): no binding (tested: up to 200 nM)
- binding result (ADI-26915): no binding (tested: up to 200 nM)
- binding result (ADI-48587): no binding (tested: up to 200 nM)
- binding result (CTL-62223): no binding (tested: up to 200 nM)
- binding result (CTL-62227): no binding (tested: up to 200 nM)
- binding result (CTL-62228): no binding (tested: up to 200 nM)
- binding result (CTL-62240): no binding (tested: up to 200 nM)
- binding result (ADI-50024): binds
- binding result (ADI-67450): binds
- Kd (ADI-67447): 21 nM
- Kd (ADI-26913 IgG): 11 nM
- Kd (ADI-26919): 18 nM
- Kd (ADI-26916 IgG): 21 nM
- binding result (ADI-26912): binds
- Kd (ADI-26924): 32 nM
- Kd (ADI-26943): 6.5 nM
- Kd (ADI-48576): 76 nM
- binding result (ADI-48592): binds
- binding result (ADI-48650): binds
- binding result (ADI-74965): binds
- binding result (ADI-74966): binds
- binding result (ADI-74967): binds
- Kd (ADI-74968): 45 nM
- binding result (ADI-76358): binds
- Kd (ADI-76359): 7.3 nM
- Kd (ADI-76360): 36 nM
- binding result (ADI-76361): binds
- binding result (ADI-76362): binds
- Kd (ADI-22523 Fab): 14.7 nM
- Kd (ADI-22523 IgG): 4.11 nM
- Kd (ADI-26906 IgG): 12 nM
- Kd (ADI-26920 IgG): 6.1 nM
- Kd (ADI-76357): 5.7 nM

Source: patent US20250019439A1 (Adimab, published 2025)
